Patent US20150218277A1 (REGENTS OF THE UNIVERSITY OF MICHIGAN, published 2015)
Ends that are not written are not given here.

These binders were tested against Heat Shock Protein 90 (HSP90), endogenous, in human cell lines (human, UniProt P07900 2-732) (assay: cell-based or functional assay).

In order of rising “clonogenic survival of UMSCC1 cells (Survival Fraction), peptide delivered with Chariot” value:
1. SVDNPHVC (not fully specified) [Peptide 2 SVDNPHVC (Disruptin)]  0.77 survival fraction
2. RLLGIC [Peptide 3 RLLGIC]  0.85 survival fraction
3. DEAYVMA [Peptide 1 DEAYVMA]  0.93 survival fraction
4. SVGNPHVC [Peptide 7 SVGNPHVC]  0.97 survival fraction
5. GVGSPYVS [Peptide 4 GVGSPYVS]  1 survival fraction
6. DEAYVMAGVGSPYVSRLLGIC [Peptide 6 DEAYVMAGVGSPYVSRLLGIC]  1 survival fraction
7. NHVPSDVC (not fully specified) [Peptide 8 NHVPSDVC (scrambled peptide)]  1 survival fraction
